Assay [1] addresses T1, human NGF (Homo sapiens, UniProt P01138). Description: BIAcore affinity determination assay (kon, koff, KD of purified Fabs). The assay is classed as binding. As to conditions: Fab on immobilized human NGF. The method, then: (§1) Affinities of anti-NGF Fabs and monoclonal antibodies were determined using the BIAcore300™ surface plasmon resonance (SPR) system (BIAcore, INC, Piscaway N.J.). CM5 chips were activated with N-ethyl-N′-(3-dimethylaminopropyl)-carbodimide hydrochloride (EDC) and N-hydroxysuccinimide (NHS) according to the supplier's instructions. Human NGF was diluted into 10 mM sodium acetate pH 4.0 and injected over the activated chip at a concentration of 0.005 mg/mL. Using variable flow time across the individual chip channels, two ranges of antigen density were achieved: 100-200 response units (RU) for detailed kinetic studies and 500-600 RU for screening assays. The chip was blocked with ethanolamine. […] HBS-EP buffer (0.01M HEPES, pH 7.4, 0.15 NaCl, 3 mM EDTA, 0.005% Surfactant […]) was used as running buffer for all the BIAcore assays.
Serial dilutions (0.1-10× estimated KD) of purified Fab samples were injected for 1 min at 100 μL/min and dissociation times of up to 2 h were allowed. The concentrations of the Fab proteins were determined by ELISA and/or SDS-PAGE electrophoresis using as a standard a Fab of known concentration (as determined by amino acid analysis). Kinetic association rates (kon) and dissociation rates (koff) were obtained simultaneously by fitting the data to a 1:1 Langmuir binding model (Karlsson, R. Roos, H. Fagerstam, L. Petersson, B. (1994). Methods Enzymology 6. 99-110) using the BIAevaluation program. Equilibrium dissociation constant (KD) values were calculated as koff/kon.
The binding affinities to human NGF of Fabs E3 and 3C were measured using BIAcore analysis according to the manufacturer's instructions and as described above, except that 100 RU NGF was used on chip to prevent a rebinding effect. Briefly, several concentrations of antibodies (Fabs) were injected for 2 minutes onto a CM5 chip with 100 RU of immobilized human NGF on it, and permitted to dissociate for 1800 seconds. Mouse antibody 911 (Fab) was analyzed as a control. Data was analyzed using BIAevaluation software following the manufacturer's instructions. E3 bound human NGF with a KD of approximately 0.07 nM (and with a kon of about 6.0e5 M-1s-1, and a koff of about 4.2e-5s-1).

For assay [2], the target named is T1, human NGF. Description: BIAcore screening assay of Fab library clones (koff). In kind it is binding. The method, then: Small scale expression in 96 wells plates was optimized for screening Fab libraries. Starting from E. coli transformed with a Fab library, colonies were picked to inoculate both a master plate (agar LB+Ampicillin (50 μg/ml)+2% Glucose) and a working plate (2 ml/well, 96 well/plate containing 1.5 mL of LB+Ampicillin (50 μg/ml)+2% Glucose). Both plates were grown at 30° C. for 8-12 hours. The master plate was stored at 4° C. and the cells from the working plate were pelleted at 5000 rpm and resuspended with 1 mL of LB+Ampicillin (50 μg/ml)+1 mM IPTG to induce expression of Fabs. Cells were harvested by centrifugation after 5 h expression time at 30° C., then resuspended in 500 μL of buffer HBS-EP ([…] buffer pH 7.4, 150 mM NaCl, 0.005% P20, 3 mM EDTA). Lysis of HBS-EP resuspended cells was attained by one cycle of freezing (−80° C.) then thawing at 37° C. Cell lysates were centrifuged at 5000 rpm for 30 min to separate cell debris from supernatants containing Fabs. The supernatants were then injected into the BIAcore plasmon resonance apparatus to obtain affinity information for each Fab. Clones expressing Fabs were rescued from the master plate to sequence the DNA and for large scale Fab production and detailed characterization as described below.
as §1
A screening BIAcore assay was optimized to determine the affinity of Fab clones from libraries. Supernatants of small culture lysates were injected at 50 μl/min for 2 min. Dissociation times of 10 to 15 minutes were used for determination of a single exponential dissociation rate (koff) using BIAevaluation software. […] Clones showing improved (slower) koff values were expressed at large scale and full kinetic parameters, kon and koff, were determined on purified protein. The assay was capable of detecting differences in affinity that were approximately 2-fold or larger.
For affinity screening experiments, each library was further paired with the corresponding CDR-grafted light or heavy chain (for example, the H1/H2 library was paired with CDR-grafted light chain), the antibody was expressed, and affinity to human NGF of the individual clones was screened using the BIACORE surface plasmon resonance (SPR) system (BIAcore, Inc. Piscataway, N.J.) according to the manufacturer's instructions and as described above. koff, kon and KD were determined. Antibody clones were ranked based on koff rates, since generally most variation in affinity is seen in koff rates, and further because koff rates are independent of antibody concentration.
20-80 clones from each small library were screened using BIAcore analysis as described herein. Samples were simultaneously analyzed by BIAcore for binding affinity to NGF in one channel of the BIAcore chip and for presence of Fab by binding to a penta-histag antibody in another channel of the sensor chip, to detect the his tag at the C terminus of the heavy chain. Clones that expressed protein were classified as having the same affinity, worse affinity, better affinity or no binding, using koff to classify: The results of this analysis are shown in Table 5.
In general terms: Surface plasmon resonance follows binding to a sensor surface in real time, without labels.

For assay [3], the target named is T1, human NGF. Description: Mouse E13.5 trigeminal neuron survival assay, human NGF. The assay is classed as cell-based. As to conditions: 1.5 or 15 pM human NGF. The method, then: (§2) The ability of Fab E3 or full antibody E3 to block NGF activity was evaluated by measurement of the capacity of the antibody to inhibit NGF-dependent survival of mouse E13.5 trigeminal neurons in vitro. The trigeminal ganglion is comprised of cutaneous sensory neurons that innervate the facial region. The survival of mouse E13.5 trigeminal neurons is a sensitive assay to evaluate the NGF-blocking activity of anti-NGF antagonist antibodies because NGF is required to support survival of these neurons. For example, at saturating concentrations of NGF, the survival is close to 100% by 48 hours in culture. By contrast, less than 5% of the neurons survive by 48 hours in absence of NGF.
The survival assay was conducted as follows: time-mated pregnant Swiss Webster female mice were euthanized by CO2 inhalation. The uterine horns were removed and the embryos at embryonic stage E13.5 were extracted and decapitated. The trigeminal ganglia were dissected using electrolytically sharpened tungsten needles. The ganglia were then trypsinized, mechanically dissociated and plated at a density of 200-300 cells per well in defined, serum-free medium in 96-well plates coated with poly-L-ornithine and laminin.
After 48 hours in culture, the cells were subjected to an automated immunocytochemistry protocol performed on a Biomek FX liquid handling workstation (Beckman Coulter) as follows: fixation using 4% formaldehyde, 5% sucrose, and PBS; permeabilization using 0.3% Triton X-100 in PBS); blocking of unspecific binding sites using 5% normal goat serum, 0.11% BSA in PBS; and sequential incubation with a primary and secondary antibodies to detect neurons. The primary antibody was rabbit polyclonal antibody against the protein gene product […] (PGP9.5, Chemicon), an established neuronal phenotypic marker. The secondary antibody was Alexa Fluor 488 goat anti-rabbit (Molecular Probes), together with the nuclear dye Hoechst 33342 (Molecular Probes) to label the nuclei of all the cells present in the culture. […]

Another assay concerns the target rat NGF (Rattus norvegicus, UniProt P25427). Description: Mouse E13.5 trigeminal neuron survival assay, rat NGF. The assay is classed as cell-based. As to conditions: 1.5 or 15 pM rat NGF. The method, then:
as §2
The survival assay was conducted as follows: time-mated pregnant Swiss Webster female mice were euthanized by CO2 inhalation. The uterine horns were removed and the embryos at embryonic stage E13.5 were extracted and decapitated. The trigeminal ganglia were dissected using electrolytically sharpened tungsten needles. The ganglia were then trypsinized, mechanically dissociated and plated at a density of 200-300 cells per well in defined, serum-free medium in 96-well plates coated with poly-L-ornithine and laminin. […]

[4] abbreviates: Table 8: CDR L3 H3 combination mutations, H19-L129 template (H1H2L1L2 matured).

Numbering of substitutions follows the chain as printed. Names and notes keep the numbering of the source.

As usually defined, the koff is the rate constant with which the complex falls apart.

T1 sequence (P01138 122-241): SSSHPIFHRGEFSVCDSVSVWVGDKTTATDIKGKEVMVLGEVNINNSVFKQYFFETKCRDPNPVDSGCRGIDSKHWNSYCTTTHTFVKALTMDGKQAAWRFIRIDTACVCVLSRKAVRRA
rat NGF, sequence (P25427 122-241): as the sequence (P01138 122-241) above, with S3T, I6V, R9M, M37T, D60A, D65E, M92T, G94D, V117A, A120G counted along it

B1: 3C: H19-L129 with CDR-L3 S91E, K92R and CDR-H3 Y101W, G103A (antibody, V domains shown)
VH: QVQLQESGPGLVKPSETLSLTCTVSGFSLIGYDLNWIRQPPGKGLEWIGIIWGDGTTDYNSAVKSRVTISKDTSKNQFSLKLSSVTAADTAVYYCARGGYWYATSYYFDYWGQGTLVTVS
VL: DIQMTQSPSSLSASVGDRVTITCRASQSISNNLNWYQQKPGKAPKLLIYYTSRFHSGVPSRFSGSGSGTDFTFTISSLQPEDIATYYCQQERTLPYTFGQGTKLEIKRT
For the molecule B1, the koff entry with human NGF [1] is “about 1.4E-5 s^−1”; in the assay with human NGF [2] (setting [4]), 1.4e-05 s⁻¹. In addition, the “blocking of human NGF-dependent trigeminal neuron survival” value in the assay with human NGF [3] is given as “strongly blocked”. For the same molecule, the “blocking of rat NGF-dependent trigeminal neuron survival” value in the assay with rat NGF was “strongly blocked”.

B2: H19-L129: combined clone with matured CDRs H1, H2, L1, L2 and grafted H3 and L3 (antibody, V domains shown)
VH: B1 VH with W101Y, A103G
VL: B1 VL with E91S, R92K
As for B2, the koff with human NGF [2] (Table 4: combination clone, mutations in CDRs H1, H2, L1, L2) was 0.00011 s⁻¹; in the assay with human NGF [2] (setting [4]) it was 1.1 e-4 s-1. For the same molecule, in the assay with human NGF [3], the “blocking of human NGF-dependent trigeminal neuron survival” value is “strongly blocked”. Also, the “blocking of rat NGF-dependent trigeminal neuron survival” value with rat NGF is recorded as “strongly blocked”.

For the origin of these results see patent publication US20080182978A1, “ANTI-NGF ANTIBODIES AND METHODS USING SAME” (RINAT NEUROSCIENCE CORP, priority 2002, published 2008).
